In patent publication US20160068604A1 (University of Texas, published 2016):
Blank lines part the entries; values can stand above or below the binder they belong to.

Tests used:
human OX40 [1] = biological target: T1, human OX40 (human, UniProt P43489 29-277); assay: FACS binding assay on L/hOX40 cells, PE goat anti-human IgG
T1 construct: whole, on cells; also called hOX40; OX40 receptor
T1 sequence (looked up): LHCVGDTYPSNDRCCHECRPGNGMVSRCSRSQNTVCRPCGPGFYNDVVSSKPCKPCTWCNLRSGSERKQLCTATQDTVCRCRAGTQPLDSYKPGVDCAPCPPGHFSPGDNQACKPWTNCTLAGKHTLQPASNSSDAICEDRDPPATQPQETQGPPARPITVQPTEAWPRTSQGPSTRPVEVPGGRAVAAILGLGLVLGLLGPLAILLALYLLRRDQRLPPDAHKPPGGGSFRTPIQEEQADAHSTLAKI

human OX40 [2] = biological target: T1, human OX40; assay: cell ELISA on dried L-hOX40 versus parental L cells, anti-mouse IgG Fc HRP
Method: In the experiment of FIG. 10, hOX40 hybridoma supernatants were screened against L-hOX40 versus L parental cells by ELISA. […] Plates were then frozen at −20° C. for at least one day before use. For antibody binding assays, frozen cells were rehydrated with PBS and washed with wash buffer containing PBS plus 0.05% Tween 20, and blocked with 2% BSA in wash buffer. Conditioned cells were then used for binding to OX40 antibody supernatants.

human OX40 [3] = biological target: T1, human OX40; assay: FACS binding assay on L/OX40 cells, PE goat anti-human IgG
human OX40 [4] = biological target: T1, human OX40; assay: flow cytometry on L/OX40 cells, FITC goat anti-human IgG
Method: In a typical experiment, various concentrations of Ch119-43-1 were incubated with 10⁵ L/OX40 cells in PBS containing 0.5% BSA and 0.05% NaN₃ (FACS Buffer) for 1 hour at 4° C. Cells were then washed with ice-cold FACS Buffer and subjected to incubation with FITC-labeled goat anti-human IgG antibody for 30 min at 4° C. After washing with FACS Buffer, stained cells were analyzed using a FACScan flow cytometer (BD Biosciences, San Jose, Calif.).

binding result (human OX40 [1]): binds
B1: Humanized 106-222 IgG1/kappa monoclonal antibody (antibody, V domains shown)
VH: QVQLVQSGSELKKPGASVKVSCKASGYTFTDYSMHWVRQAPGQGLKWMGWINTETGEPTYADDFKGRFVFSLDTSVSTAYLQISSLKAEDTAVYYCANPYYDYVSYYAMDYWGQGTTVTVSS
VL: DIQMTQSPSSLSASVGDRVTITCKASQDVSTAVAWYQQKPGKAPKLLIYSASYLYTGVPSRFSGSGSGTDFTFTISSLQPEDIATYYCQQHYSTPRTFGQGTKLEIK
notes: Human IgG1/kappa; also called Hu222

binding result (human OX40 [2]): binds
B2: mouse anti-human OX40 monoclonal antibody 119-122 (antibody, V domains shown)
VH: EVQLVESGGGLVQPGESLKLSCESNEYEFPSHDMSWVRKTPEKRLELVAAINSDGGSTYYPDTMERRFIISRDNTKKTLYLQMSSLRSEDTALYYCARHYDDYYAWFAYWGQGTLVTVSA
VL: DIVLTQSPASLAVSLGQRATISCRASKSVSTSGYSYMHWYQQKPGQPPKLLIYLASNLESGVPARFSGSGSGTDFTLNIHPVEEEDAATYYCQHSRELPLTFGAGTKLELK
notes: Mouse hybridoma antibody; also called Mouse122

binding result (human OX40 [3]): binds
B3: Chimeric 119-122 IgG1/kappa monoclonal antibody (antibody, V domains shown)
VH: B2 VH
VL: B2 VL
notes: Mouse variable regions with human gamma-1 and kappa constant regions (IgG1/kappa); also called Ch119

binding result (human OX40 [2]): binds
B4: mouse anti-human OX40 monoclonal antibody 106-222 (antibody, V domains shown)
VH: QIQLVQSGPELKKPGETVKISCKASGYTFTDYSMHWVKQAPGKGLKWMGWINTETGEPTYADDFKGRFAFSLETSASTAYLQINNLKNEDTATYFCANPYYDYVSYYAMDYWGHGTSVTVSS
VL: DIVMTQSHKFMSTSVRDRVSITCKASQDVSTAVAWYQQKPGQSPKLLIYSASYLYTGVPDRFTGSGSGTDFTFTISSVQAEDLAVYYCQQHYSTPRTFGGGTKLEIK
notes: Mouse hybridoma antibody; also called Mouse222

binding result (human OX40 [1]): binds
B5: Chimeric 106-222 IgG1/kappa monoclonal antibody (antibody, V domains shown)
VH: B4 VH
VL: B4 VL
notes: Mouse variable regions with human gamma-1 and kappa constant regions (IgG1/kappa); also called Ch222

binding result (human OX40 [3]): binds
B6: Humanized 119-122 IgG1/kappa monoclonal antibody (antibody, V domains shown)
VH: EVQLVESGGGLVQPGGSLRLSCAASEYEFPSHDMSWVRQAPGKGLELVAAINSDGGSTYYPDTMERRFTISRDNAKNSLYLQMNSLRAEDTAVYYCARHYDDYYAWFAYWGQGTMVTVSS
VL: EIVLTQSPATLSLSPGERATLSCRASKSVSTSGYSYMHWYQQKPGQAPRLLIYLASNLESGVPARFSGSGSGTDFTLTISSLEPEDFAVYYCQHSRELPLTFGGGTKVEIK
notes: Human IgG1/kappa; also called Hu119

EC50 (human OX40 [4]): 0.96 µg/mL
B7: Chimeric 119-43-1 IgG1/kappa antibody (antibody, V domains shown)
VH: EVKLEESGGGLVQPGGSMKLSCAASGFTFSDAWMDWVRQSPEKGLEWVAEIRSKANNHATYYAESVNGRFTISRDDSKSSVYLQMNSLRAEDTGIYYCTWGEVFYFDYWGQGTTLTVSS
VL: DIQMTQSPSSLSASLGGKVTITCKSSQDINKYIAWYQHKPGKGPRLLIHYTSTLQPGIPSRFSGSGSGRDYSFSISNLEPEDIATYYCLQYDNLLTFGAGTKLELKR
notes: also called Ch119-43-1
